Data: US7951562B2, “Method for glycosylating hydroxylysine residues in polypeptides or peptides” (Oulun Yliopisto, priority 2000, dated 2011)

Columns and labels:
Assay type in all cases: biochemical
[1] = test system: galactosylhydroxylysyl residues in calf skin gelatin substrate; test: GGT (glucosyltransferase) activity of recombinant proteins expressed in Sf9 insect cells; conditions: for GGT activity, Dpm/plate: Sf9 cells transfected by LH3 constructs; for GGT activity, %: relative to nonmutated LH3 construct; for GGT activity in cell lysates: Sf9 cells, 72 hours after infection
Source text: The glucosyltransferase activity can be assayed as described in Myllylä et al. (1975). The method is based on the transfer of radioactively (tritium) labelled glucose from UDP-glucose to galactosylhydroxylysyl residues in calf skin gelatin substrate and on the specific assay of the product of the enzyme reaction after alkaline hydrolysis.
(§1) Commercially available baculovirus transfer vector pFastBacI in the BAC-TO-BAC™ expression system (Life technologies, Inc.) was modified to contain human LH1 signal peptide (Hautala et al., 1992) and His6 tag, and BamHI restriction site for insertion of the desired cDNA, nucleotides 289-2455 of LH3 cDNA (SEQ ID NO 6) (Valtavaara et al., 1998). The construct was confirmed by sequencing. The recombinant protein contains His tag at the amino-terminus after signal peptide cleavage. Insect cells were harvested 0-72 hours after infection and homogenized according to the protocol described earlier (Valtavaara et al., 1997).
Human LH1 signal peptide and His6 tag was inserted to the cDNA constructs of LH1 and LH2. The baculovirus transfer vector pFastBacI was modified so that human LH1 signal sequence followed by nine nucleotides of the amino-terminal end was ligated to the His6 tag followed by nucleotides for BamHI restriction site. The human cDNA sequence (LH1 or LH2) (SEQ ID NO 21, 23 and 25) starting from the likely amino-terminal end of the molecule was ligated to the BamHI site of the construct. Two expression constructs were generated for LH2, LH2a and LH2b (SEQ ID NO 23 and 25), both of them covered the nucleotides from 76 to 2267 (Valtavaara et al., 1997). The LH2b construct contained also the alternatively spliced exon sequence (Valtavaara 1999; Yeowell and Walker, 1999) between nucleotides 1500 and 1501 (SEQ ID NO 25). The constructs were confirmed by sequencing. Insect cells were grown and homogenized as described above.
(§2) LH activity was assayed by a method based on the hydroxylation-coupled decarboxylation of 2-oxo(1-^14C)glutarate (Kivirikko and Myllylä 1982), synthetic peptide […] was used as a substrate. GGT activity was assayed as described elsewhere (Myllylä et al. 1975). The method is based on the transfer of radioactively (tritium) labelled glucose from UDP-glucose to galactosylhydroxylysyl residues in calf skin gelatin substrate and on the specific assay of the product of the enzyme reaction after alkaline hydrolysis.

[2] = test system: synthetic peptide IKGIKGIKG; test: LH (lysyl hydroxylase) activity of LH3 constructs expressed in Sf9 cells; conditions: for LH3 activity, Dpm/plate: Sf9 cells transfected by LH3 constructs; for LH3 activity, %: relative to nonmutated LH3 construct
Source text: (§3) The lysyl hydroxylase activity can be assayed by a method based on the hydroxylation-coupled decarboxylation of 2-oxo(1-^14C)glutarate (Kivirikko and Myllylä 1982), synthetic peptide […] was used as a substrate.
as §1, §2

[3] = test system: hydroxylysyl residues in a calf skin gelatin substrate; test: GT activity of recombinant proteins expressed with baculovirus vector in Sf9 cells; conditions: baculovirus vector in insect cells, not shown
Method: Baculovirus transfer vector pFastBacI in the BAC-TO-BAC™ expression system was used to produce LH3 protein in Sf9 cells. The cDNA construct is in Example 1. The recombinant protein contains the His tag at the amino terminus after signal peptide cleavage. The cells were homogenized as described elsewhere (Valtavaara et al. 1997).
GT and GGT activities were measured by a method based on the transfer of radioactively (tritium)-labeled sugar from UDP-sugar to hydroxylysyl or galactosylhydroxylysyl residues in a calf skin gelatin substrate, respectively (Myllylä et al. 1975). The specific detection of the reaction products was performed after alkaline hydrolysis.

[4] = test system: synthetic peptide IKGIKGIKG; test: LH activity of human LH isoforms expressed in E. coli; conditions: E. coli expression system, data not shown
Source text: as §3
PFastBacI constructs for human LH1, LH2a, LH2b and LH3 were cleaved with BamHI and Hind III restriction enzymes and coding regions were subcloned into same site in E. coli expression vector pQE30 containing (His)6 tag at the amino terminus. Insert for C. elegans LH (corresponding to amino acids 14-730 in cDNA) was generated by PCR and ligated into SacI-PstI site of pOE30 vector. Constructs were transformed into E. coli XL1-Blue strain. Cultures were grown to OD600 of 0.6 at 37° C. Protein expression was induced by adding 1 mM IPTG and incubation was proceed at 30° C. for 5 hours. Cells were harvested and stored at −20° C. For activity measurements cell pellet was suspended to lysis buffer (0.4 M NaCl, 0.5% Nonident and 20 mM Tris-HCl pH 7.8, at 20° C.) and incubated in the presence of lysozyme (50 μg/ml), DNAase (10 μg/ml) and RNAase (10 μg g/ml) at room temperature for 30 minutes. Lysis was completed by sonication. Cell debris was pelleted and supernatant was used in the measurements.

[5] = test system: hydroxylysyl residues in a calf skin gelatin substrate; test: GT (galactosyltransferase) activity of recombinant proteins expressed in E. coli; conditions: E. coli cell supernatant, FIG. 12
Source text: The galactosyltransferase activity can be assayed as described in Myllylä et al. (1975). The method is based on the transfer of radioactively (tritium) labelled galactose from UDP-galactose to hydroxylysyl residues in calf skin gelatin substrate and on the specific assay of the product of the enzyme reaction after alkaline hydrolysis.

Molecule	GGT activity, Dpm/plate [1] [Dpm/plate]	GGT activity, % [1] [%]	LH3 activity, Dpm/plate [2] [Dpm/plate]	LH3 activity, % [2] [%]	GGT activity in cell lysates [1]	generation of GT activity [3]	LH activity [4]	generation of GT activity [5]
Mutation 4: human LH3 mutant, amino acids 25-668 normal, amino acids 669-698 modified (protein, listed as Homo sapiens) SDRPRGRDPVNPEKLLVITVATAETEGYLRFLRSAEFFNYTVRTLGLGEEWRGGDVARTVGGGQKVRWLKKEMEKYADREDMIIMFVDSYDVILAGSPTELLKKFVQSGSRLLFSAESFCWPEWGLAEQYPEVGTGKRFLNSGGFIGFATTIHQIVRQWKYKDDDDDQLFYTRLYLDPGLREKLSLNLDHKSRIFQNLNGALDEVVLKFDRNRVRIRNVAYDTLPIVVHGNGPTKLQLNYLGNYVPNGWTPEGGCGFCNQDRRTLPGGQPPPRVFLAVFVEQPTPFLPRFLQRLLLLDYPPDRVTLFLHNNEVFHEPHIADSWPQLQDHFSAVKLVGPEEALSPGEARDMAMDLCRQDPECEFYFSLDADAVLTNLQTLRILIEENRKVIAPMLSRHGKLWSNFWGALSPDEYYARSEDYVELVQRKRVGVWNVPYISQAYVIRGDTLRMELPQRDVFSGSDTDPDMAFCKSFRDKGIFLHLSNQHEFGRLLATSRYDTEHLHPDLWQIFDNPVDWKEQYIHENYSRALEGEGIVEQPCPDVYWFPLLSEQMCDELVAEMEHYGQWSGGRHEDSRLAGGYENVPTVDIHMKQVGYEDQWLQLLRTYVGPMTESLFPGYHTKARAVMNFVVRYRPDEQPSLRPHHAHPPSPSTLPSTTRAWTMREVAAASCATTV	360000	47	<300	<5				
LH2a: recombinant human lysyl hydroxylase isoform 2, alternatively spliced form a (protein, left off: small tags and cut ends, recombinant human lysyl hydroxylase isoform 2, alternatively spliced form a) ADSEKPSSIPTDKLLVITVATKESDGFHRFMQSAKYFNYTVKVLGQGEEWRGGDGINSIGGGQKVRLMKEVMEHYADQDDLVVMFTECFDVIFAGGPEEVLKKFQKANHKVVFAADGILWPDKRLADKYPVVHIGKRYLNSGGFIGYAPYVNRIVQQWNLQDNDDDQLFYTKVYIDPLKREAINITLDHKCKIFQTLNGAVDEVVLKFENGKARAKNTFYETLPVAINGNGPTKILLNYFGNYVPNSWTQDNGCTLCEFDTVDLSAVDVHPNVSIGVFIEQPTPFLPRFLDILLTLDYPKEALKLFIHNKEVYHEKDIKVFFDKAKHEIKTIKIVGPEENLSQAEARNMGMDFCRQDEKCDYYFSVDADVVLTNPRTLKILIEQNRKIIAPLVTRHGKLWSNFWGALSPDGYYARSEDYVDIVQGNRVGVWNVPYMANVYLIKGKTLRSEMNERNYFVRDKLDPDMALCRNAREMGVFMYISNRHEFGRLLSTANYNTSHYNNDLWQIFENPVDWKEKYINRDYSKIFTENIVEQPCPDVFWFPIFSEKACDELVEEMEHYGKWSGGKHHDSRISGGYENVPTDDIHMKQVDLENVWLDFIREFIAPVTLKVFAGYYTKGFALLNFVVKYSPERQRSLRPHHDASTFTINIALNNVGEDFQGGGCKFLRYNCSIESPRKGWSFMHPGRLTHLHEGLPVKNGTRYIAVSFIDP					none of these recombinant proteins had detectable GGT activity	did not generated GT activity	no LH activity can be found	LH3 was the only one being able to generate GT activity
Mutation 1: human LH3 mutant, amino acids 25-231 normal, amino acids 232-356 modified (frame shift) (protein, listed as Homo sapiens) SDRPRGRDPVNPEKLLVITVATAETEGYLRFLRSAEFFNYTVRTLGLGEEWRGGDVARTVGGGQKVRWLKKEMEKYADREDMIIMFVDSYDVILAGSPTELLKKFVQSGSRLLFSAESFCWPEWGLAEQYPEVGTGKRFLNSGGFIGFATTIHQIVRQWKYKDDDDDQLFYTRLYLDPGLREKLSLNLDHKSRIFQNLNGALDEVVLSLIGTVCVSGTWPTTRSPLWSMETVPLSCSSTTWETTSPMAGLLREAVASATRTGGHSRGGSLPPGCFWPCLWNSLLRFCPASCSGCYSWTIPPTGSPFSCTTTRSSMNPTSLTPGRSSRTTSQL	650	0.1	<300	<5				
LH1: recombinant human lysyl hydroxylase isoform 1, His-tagged (protein, listed as Homo sapiens, His6 tag, recombinant human lysyl hydroxylase isoform 1, His-tagged) MRPLLLLALLGWLLLAEAKGDAKPEDNLLVLTVATKETEGFRRFKRSAQFFNYKIQALGLGEDWNVEKGTSAGGGQKVRLLKKALEKHADKEDLVILFTDSYDVLFASGPRELLKKFRQARSQVVFSAEELIYPDRRLETKYPVVSDGKRFLGSGGFIGYAPNLSKLVAEWEGQDSDSDQLFYTKIFLDPEKREQINITLDHRCRIFQNLDGALDEVVLKFEMGHVRARNLAYDTLPVLIHGNGPTKLQLNYLGNYIPRFWTFETGCTVCDEGLRSLKGIGDEALPTVLVGVFIEQPTPFVSLFFQRLLRLHYPQKHMRLFIHNHEQHHKAQVEEFLAQHGSEYQSVKLVGPEVRMANADARNMGADLCRQDRSCTYYFSVDADVALTEPNSLRLLIQQNKNVIAPLMTRHGRLWSNFWGALSADGYYARSEDYVDIVQGRRVGVWNVPYISNIYLIKGSALRGELQSSDLFHHSKLDPDMAFCANIRQQDVFMFLTNRHTLGHLLSLDSYRTTHLHNDLWEVFSNPEDWKEKYIHQNYTKALAGKLVETPCPDVYWFPIFTEVACDELVEEMEHFGQWSLGNNKDNRIQGGYENVPTIDIHMNQIGFEREWHKFLLEYIAPMTEKLYPGYYTRAQFDLAFVVRYKPDEQPSLMPHHDASTFTINIALNRVGVDYEGGGCRFLRYNCSIRAPRKGWTLMHPGRLTHYHEGLPTTRGTRYIAVSFVDP					none of these recombinant proteins had detectable GGT activity	did not generated GT activity	no LH activity can be found	LH3 was the only one being able to generate GT activity
Mutation 2: human LH3 mutant, amino acids 25-520 normal, amino acids 521-738 missing (protein, listed as Homo sapiens) SDRPRGRDPVNPEKLLVITVATAETEGYLRFLRSAEFFNYTVRTLGLGEEWRGGDVARTVGGGQKVRWLKKEMEKYADREDMIIMFVDSYDVILAGSPTELLKKFVQSGSRLLFSAESFCWPEWGLAEQYPEVGTGKRFLNSGGFIGFATTIHQIVRQWKYKDDDDDQLFYTRLYLDPGLREKLSLNLDHKSRIFQNLNGALDEVVLKFDRNRVRIRNVAYDTLPIVVHGNGPTKLQLNYLGNYVPNGWTPEGGCGFCNQDRRTLPGGQPPPRVFLAVFVEQPTPFLPRFLQRLLLLDYPPDRVTLFLHNNEVFHEPHIADSWPQLQDHFSAVKLVGPEEALSPGEARDMAMDLCRQDPECEFYFSLDADAVLTNLQTLRILIEENRKVIAPMLSRHGKLWSNFWGALSPDEYYARSEDYVELVQRKRVGVWNVPYISQAYVIRGDTLRMELPQRDVFSGSDTDPDMAFCKSFRDKGIFLHLSNQHEFGRLLATSR	180000	23	<300	<5				
